How the values were obtained:
[1] = target: human SIDT1 (hSIDT1) (human) (UniProt Q9NXL6); experiment: cryo-EM structure; hSIDT1 at pH 5.5 (hSIDT1^pH5.5); homodimer, dimer interface rearranged against pH 7.5
[2] = target: human SIDT1 (hSIDT1) (human) (UniProt Q9NXL6); experiment: cryo-EM structure; hSIDT1 at pH 7.5 (hSIDT1^pH7.5); cholesteryl hemisuccinate in the buffer during membrane solubilization; homodimer

stoichiometry N [1]: 2
stoichiometry N [2]: 2
Substance: human SIDT1 (hSIDT1) (from UniProt Q9NXL6 20-827) (natural protein)

— paper PMC10879482
